{"source": "patent US8563314", "assay_in_all_cases": "cell_activity", "key": {"ZFN 25012 (synthetic)": {"tested_on": "ZFN 25012 (synthetic)", "conditions": "pair with 12942, PBMC, 37C day 3"}, "ZFN 25011 (synthetic)": {"tested_on": "ZFN 25011 (synthetic)", "conditions": "pair with 12942, PBMC, 37C day 3"}, "ZFN 25041 (synthetic)": {"tested_on": "ZFN 25041 (synthetic)", "conditions": "pair with 12942, PBMC, 37C day 3"}, "ZFN 25015 (synthetic)": {"tested_on": "ZFN 25015 (synthetic)", "conditions": "pair with 12942, PBMC, 37C day 3; helices printed identical to 25014"}, "ZFN 25023 (synthetic)": {"tested_on": "ZFN 25023 (synthetic)", "conditions": "pair with 12942, PBMC, 37C day 3"}, "ZFN 25014 (synthetic)": {"tested_on": "ZFN 25014 (synthetic)", "conditions": "pair with 12942, PBMC, 37C day 3"}, "ZFN 25028 (synthetic)": {"tested_on": "ZFN 25028 (synthetic)", "conditions": "pair with 12942, PBMC, 37C day 3"}, "ZFN 25010 (synthetic)": {"tested_on": "ZFN 25010 (synthetic)", "conditions": "pair with 12942, PBMC, 37C day 3"}, "ZFN 25034 (synthetic)": {"tested_on": "ZFN 25034 (synthetic)", "conditions": "pair with 12942, PBMC, 37C day 3"}, "ZFN 25017 (synthetic)": {"tested_on": "ZFN 25017 (synthetic)", "conditions": "pair with 12942, PBMC, 37C day 3"}, "ZFN 25027 (synthetic)": {"tested_on": "ZFN 25027 (synthetic)", "conditions": "pair with 12942, PBMC, 37C day 3"}, "ZFN 25032 (synthetic)": {"tested_on": "ZFN 25032 (synthetic)", "conditions": "pair with 12942, PBMC, 37C day 3"}, "ZFN 25022 (synthetic)": {"tested_on": "ZFN 25022 (synthetic)", "conditions": "pair with 12942, PBMC, 37C day 3"}, "ZFN 25006 (synthetic)": {"tested_on": "ZFN 25006 (synthetic)", "conditions": "pair with 12942, PBMC, 37C day 3"}, "ZFN 18759 (synthetic)": {"tested_on": "ZFN 18759 (synthetic)", "conditions": "pair with 12942, PBMC, 37C day 3"}, "ZFN 25036 (synthetic)": {"tested_on": "ZFN 25036 (synthetic)", "conditions": "pair with 12942, PBMC, 37C day 3; helices printed identical to 25031"}, "ZFN 25025 (synthetic)": {"tested_on": "ZFN 25025 (synthetic)", "conditions": "pair with 12942, PBMC, 37C day 3"}, "ZFN 25030 (synthetic)": {"tested_on": "ZFN 25030 (synthetic)", "conditions": "pair with 12942, PBMC, 37C day 3; F3 printed RPMHUTN"}, "ZFN 25040 (synthetic)": {"tested_on": "ZFN 25040 (synthetic)", "conditions": "pair with 12942, PBMC, 37C day 3"}, "ZFN 25029 (synthetic)": {"tested_on": "ZFN 25029 (synthetic)", "conditions": "pair with 12942, PBMC, 37C day 3"}, "ZFN 25031 (synthetic)": {"tested_on": "ZFN 25031 (synthetic)", "conditions": "pair with 12942, PBMC, 37C day 3"}, "ZFN 25013 (synthetic)": {"tested_on": "ZFN 25013 (synthetic)", "conditions": "pair with 12942, PBMC, 37C day 3"}, "ZFN 25005 (synthetic)": {"tested_on": "ZFN 25005 (synthetic)", "conditions": "pair with 12942, PBMC, 37C day 3"}, "ZFN 25016 (synthetic)": {"tested_on": "ZFN 25016 (synthetic)", "conditions": "pair with 12942, PBMC, 37C day 3"}, "ZFN 12942 (synthetic)": {"tested_on": "ZFN 12942 (synthetic)", "conditions": "pair with 12947, day 3, K562"}, "ZFN 12934 (synthetic)": {"tested_on": "ZFN 12934 (synthetic)", "conditions": "pair with 12971 or 12972, day 3, K562"}, "ZFN 12971 (synthetic)": {"tested_on": "ZFN 12971 (synthetic)", "conditions": "pair with 12934, day 3, K562"}, "ZFN 12972 (synthetic)": {"tested_on": "ZFN 12972 (synthetic)", "conditions": "pair with 12934, day 3, K562"}}, "data": [{"sequence": "CAGTCGTCTGGGCGGTGCT (double strand) [PD1 exon 1 18759/250xx site]", "values": [{"measurement": "activity", "setting": "ZFN 25012 (synthetic)", "result": 5.9, "unit": "% NHEJ"}, {"measurement": "activity", "setting": "ZFN 25011 (synthetic)", "result": 3.1, "unit": "% NHEJ"}, {"measurement": "activity", "setting": "ZFN 25041 (synthetic)", "result": 7.9, "unit": "% NHEJ"}, {"measurement": "activity", "setting": "ZFN 25015 (synthetic)", "result": 3.9, "unit": "% NHEJ"}, {"measurement": "activity", "setting": "ZFN 25023 (synthetic)", "result": 3.1, "unit": "% NHEJ"}, {"measurement": "activity", "setting": "ZFN 25014 (synthetic)", "result": 10.7, "unit": "% NHEJ"}, {"measurement": "activity", "setting": "ZFN 25028 (synthetic)", "result": 4.3, "unit": "% NHEJ"}, {"measurement": "activity", "setting": "ZFN 25010 (synthetic)", "result": 4.9, "unit": "% NHEJ"}, {"measurement": "activity", "setting": "ZFN 25034 (synthetic)", "result": 4.9, "unit": "% NHEJ"}, {"measurement": "activity", "setting": "ZFN 25017 (synthetic)", "result": 7.7, "unit": "% NHEJ"}, {"measurement": "activity", "setting": "ZFN 25027 (synthetic)", "result": 6, "unit": "% NHEJ"}, {"measurement": "activity", "setting": "ZFN 25032 (synthetic)", "result": 6.7, "unit": "% NHEJ"}, {"measurement": "activity", "setting": "ZFN 25022 (synthetic)", "result": 3.6, "unit": "% NHEJ"}, {"measurement": "activity", "setting": "ZFN 25006 (synthetic)", "result": 2.9, "unit": "% NHEJ"}, {"measurement": "activity", "setting": "ZFN 18759 (synthetic)", "result": 4.7, "unit": "% NHEJ"}, {"measurement": "activity", "setting": "ZFN 25036 (synthetic)", "result": 8.3, "unit": "% NHEJ"}, {"measurement": "activity", "setting": "ZFN 25025 (synthetic)", "result": 8.8, "unit": "% NHEJ"}, {"measurement": "activity", "setting": "ZFN 25030 (synthetic)", "result": 7.6, "unit": "% NHEJ"}, {"measurement": "activity", "setting": "ZFN 25040 (synthetic)", "result": 6.1, "unit": "% NHEJ"}, {"measurement": "activity", "setting": "ZFN 25029 (synthetic)", "result": 8.1, "unit": "% NHEJ"}, {"measurement": "activity", "setting": "ZFN 25031 (synthetic)", "result": 9.4, "unit": "% NHEJ"}, {"measurement": "activity", "setting": "ZFN 25013 (synthetic)", "result": 3.7, "unit": "% NHEJ"}, {"measurement": "activity", "setting": "ZFN 25005 (synthetic)", "result": 4.4, "unit": "% NHEJ"}, {"measurement": "activity", "setting": "ZFN 25016 (synthetic)", "result": 7.3, "unit": "% NHEJ"}]}, {"sequence": "CCAGGGCGCCTGTGGGATCTGCATGCCT (double strand) [PD1 exon 1 12942 site]", "values": [{"measurement": "activity", "setting": "ZFN 12942 (synthetic)", "result": 10, "unit": "% NHEJ"}]}, {"sequence": "GAACACAGGCACGGCTGAGGGGTCCTCC (double strand) [PD1 exon 5 12934 site]", "values": [{"measurement": "activity", "setting": "ZFN 12934 (synthetic)", "result": 11, "unit": "% NHEJ"}]}, {"sequence": "CTGTGGACTATGGGGAGCTGGATTTCCA (double strand) [PD1 exon 5 12971/12972 site]", "values": [{"measurement": "activity", "setting": "ZFN 12971 (synthetic)", "result": 11, "unit": "% NHEJ"}, {"measurement": "activity", "setting": "ZFN 12972 (synthetic)", "result": 11, "unit": "% NHEJ"}]}]}
